For experiment [1], the target named is T1, PAWS1-GFP (endogenous PAWS1/FAM83G with a GFP tag knocked in at the C-terminus) (Aequorea victoria GFP (tag on human …, UniProt P42212 = GFP)).
T1 construct: PAWS1 (FAM83G), human, expressed from its own locus; GFP tag knocked in around the stop codon of PAWS1; donor construct DU48585; also called protein associated with SMAD1; source: endogenous, homozygous CRISPR/Cas9 knock-in U2OS cells, in cell extract
The experiment in a line: pull-down; aGFP16 tethered to sepharose beads; cell extracts; pull-downs and flow-through extracts analysed. Conditions: one partner purified.

Experiment [2] concerns the target T2, GFP-VPS34 (endogenous VPS34 with a GFP tag knocked in at the N-terminus) (Aequorea victoria GFP (tag on human …, UniProt P42212 = GFP)).
T2 construct: GFP tag knocked in around the start codon of VPS34; donor construct DU52175; VPS34, class III phosphatidylinositol 3-kinase, human, expressed from its own locus; also called vacuolar protein sorting 34; source: endogenous, homozygous CRISPR/Cas9 knock-in HEK293 cells, in cell extract
The description is as above. Conditions: one partner purified.

Experimental findings from paper PMC5090066, “An affinity-directed protein missile system for targeted proteolysis” (Open Biology, 2016) are described below.

B1: aGFP16, cameloid anti-GFP nanobody, tethered to sepharose beads (VHH)
VHH: QVQLVESGGRLVQAGDSLRLSCAASGRTFSTSAMAWFRQAPGREREFVAAITWTVGNTILGDSVKGRFTISRDRAKNTVDLQMDNLEPEDTAVYYCSARSRGYVLSVLRSVDSYDYWGQGTQVTVSG
notes: DU54238 is the cDNA in the pBABED/pRetroX vectors
Regarding B1, the binding result in experiment [1] and in experiment [2] was “binds” each time.
